Experimental data published in patent US20040170622A1, “Methods and compositions for modulating XBP-1 activity” (President and Fellows of Harvard College, priority 2002, published 2004).

Legend:
[1] = test system: XBP-1 mRNA splicing; test: XBP-1 mRNA splicing and XBP-1s protein in purified murine B cells (RT-PCR, Western blot); type: cell-based; conditions: for XBP-1 mRNA splicing (RT-PCR): purified murine B cells, 24-72 h
Method: (§1) Mouse splenocytes or purified B cells (purified mature B cells were isolated from spleen and lymph nodes by magnetic CD43 depletion or B220 magnetic bead selection, Miltenyi Biotech, Auburn Calif.) were plated at 1×10^6 cells/ml in complete media containing RPMI 1640 supplemented with 10% fetal calf serum (FBS)(Hyclone Laboratories), glutamine (2 mM), penicillin (50 units/ml), streptomycin (50 μg/ml), Hepes (100 mM), nonessential amino acids (1×) sodium pyruvate (1 mM) and β-ME (50 μM) and stimulated with anti-CD40(1 μg/ml)(Pharmigen) or LPS (20 μg/ml)(Sigma). Cytokines (R&D Systems, Minneapolis, Minn.) were used at IL-4 (20 ng/ml), IL-2 (20 ng/ml), Il-5 (20 ng/ml), IL-6 (20 ng/ml ), IL-10 (20 ng/ml ) and IL-13 (20 ng/ml). Stimulated B cells were split to a cell concentration of 1×10^6 cells/ml with fresh media every 24 h. The BCL1 (CWS13.20-3B3 ATCC CRL 1699) cell line was cultured in RPMI media supplemented with 10% FBS, gentamicin (20 μg/ml), and β-ME (50 μM). To induce differentiation cells were plated at 2×10^5 cells/ml and treated with recombinant mouse IL-2 and IL-5 (20 ng/ml) (R&D systems).
Total RNA was isolated using TriZo1 (Gibco-BRL) or Qiashedder/Rneasy RNA purification columns (Quiagen). Northern Blots were performed as described (Rengarajan et al., 2000 Immunity. 12:293-300). […] The following probes were used after ^32P-radiolabeling with the ReadyPrime labeling system (Amersham-Pharmacia): XBP-1 (15-830 of the murine coding region), GRP94 and GRP78 (both a kind gift of R. J. Kaufman Univ. of Michigan (Lee et al., 2002)), Blimp (Nco1-Sca1 fragment), c-myc cDNA and Il-6 cDNA . […]
The UPR is induced in cells that detect irregular amounts of unfolded or unassembled protein in the lumen of the ER. […] Total RNAs were prepared at the indicated time point and XBP-1 mRNA levels (a) were determined by Northern blot analysis with γ-actin control (b). […] XBP-1s protein levels were also measured by Western blot analysis (d). […] In panel (C) XBP-1s protein levels were measured by Western blot analysis in the cells stimulated as indicated for 72 hours.

[2] = molecular target: T1, IL-6/IL-6 R complex with gp130 (Homo sapiens, UniProt P08887); conditions: IL-6/IL-6R complex on the membrane with gp130; read-out: Kd (high affinity); cited from earlier work
T1 sequence (P08887 20-468): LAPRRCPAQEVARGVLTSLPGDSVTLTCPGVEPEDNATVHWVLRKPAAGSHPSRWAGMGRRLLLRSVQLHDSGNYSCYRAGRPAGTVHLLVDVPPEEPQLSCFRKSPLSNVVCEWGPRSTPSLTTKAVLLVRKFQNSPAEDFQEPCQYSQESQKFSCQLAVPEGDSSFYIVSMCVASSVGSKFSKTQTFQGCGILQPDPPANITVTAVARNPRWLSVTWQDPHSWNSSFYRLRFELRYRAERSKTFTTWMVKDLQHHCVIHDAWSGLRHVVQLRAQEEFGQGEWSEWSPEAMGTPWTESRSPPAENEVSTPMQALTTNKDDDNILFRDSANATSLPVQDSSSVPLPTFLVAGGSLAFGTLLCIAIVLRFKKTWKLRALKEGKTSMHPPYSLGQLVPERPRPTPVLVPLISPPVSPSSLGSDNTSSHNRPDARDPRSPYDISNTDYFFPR
T1 sequence (P40189 23-918 partner): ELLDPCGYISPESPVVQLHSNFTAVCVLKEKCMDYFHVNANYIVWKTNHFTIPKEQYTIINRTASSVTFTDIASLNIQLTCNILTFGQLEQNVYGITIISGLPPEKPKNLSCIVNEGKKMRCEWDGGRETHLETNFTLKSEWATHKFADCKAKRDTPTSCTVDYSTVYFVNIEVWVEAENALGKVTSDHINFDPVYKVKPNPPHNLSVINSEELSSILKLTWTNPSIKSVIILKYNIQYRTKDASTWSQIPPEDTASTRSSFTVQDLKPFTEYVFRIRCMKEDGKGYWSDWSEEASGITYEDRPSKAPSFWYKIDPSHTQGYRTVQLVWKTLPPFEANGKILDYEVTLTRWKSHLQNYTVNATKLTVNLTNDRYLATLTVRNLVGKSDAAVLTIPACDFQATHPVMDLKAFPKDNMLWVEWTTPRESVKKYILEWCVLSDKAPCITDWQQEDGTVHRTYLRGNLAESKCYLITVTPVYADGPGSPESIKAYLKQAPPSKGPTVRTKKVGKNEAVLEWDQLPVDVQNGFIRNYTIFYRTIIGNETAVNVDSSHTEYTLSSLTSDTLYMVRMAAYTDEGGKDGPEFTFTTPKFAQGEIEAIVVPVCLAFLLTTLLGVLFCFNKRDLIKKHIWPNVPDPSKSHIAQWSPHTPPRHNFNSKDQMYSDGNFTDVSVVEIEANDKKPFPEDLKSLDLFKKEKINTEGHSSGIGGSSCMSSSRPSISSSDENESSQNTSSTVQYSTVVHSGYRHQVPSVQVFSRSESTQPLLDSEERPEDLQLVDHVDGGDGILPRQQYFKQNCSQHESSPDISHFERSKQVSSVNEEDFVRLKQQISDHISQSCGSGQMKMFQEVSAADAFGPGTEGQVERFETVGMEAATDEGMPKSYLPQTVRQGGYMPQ

[3] = molecular target: T2, IL-6R (Homo sapiens, UniProt P08887); conditions: IL-6R alone; read-out: Kd (low affinity); cited from earlier work
T2 sequence (P08887 20-468): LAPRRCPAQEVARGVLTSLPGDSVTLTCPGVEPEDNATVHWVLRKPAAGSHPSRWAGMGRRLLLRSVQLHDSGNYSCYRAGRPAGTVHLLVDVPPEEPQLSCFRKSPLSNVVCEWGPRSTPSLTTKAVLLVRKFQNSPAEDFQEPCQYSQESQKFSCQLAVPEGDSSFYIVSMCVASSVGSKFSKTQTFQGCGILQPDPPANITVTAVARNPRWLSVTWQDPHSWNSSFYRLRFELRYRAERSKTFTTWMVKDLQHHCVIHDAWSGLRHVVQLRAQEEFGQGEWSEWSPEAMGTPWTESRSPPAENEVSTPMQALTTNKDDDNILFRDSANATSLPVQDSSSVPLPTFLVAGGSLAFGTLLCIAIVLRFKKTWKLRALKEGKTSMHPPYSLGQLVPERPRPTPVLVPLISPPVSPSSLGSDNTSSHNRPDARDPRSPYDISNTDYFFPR

[4] = test system: spliced XBP-1; test: Inhibition of transactivation function of spliced XBP-1, luciferase in NIH 3T3 cells; type: cell-based; conditions: NIH 3T3, 200 ng spliced XBP-1, 200 ng mutant
Method: Versions of XBP-1 with various deletions of the C terminal transcription activating domain (e.g., consisting of the N terminal 225, 188, or 136 amino acids of the spliced form of XBP-1) that expressed high levels of protein by western analysis were created. The proteins were tested for their ability to inhibit the transactivation function of spliced XBP-1. Both the 188 and 136 N terminal mutants were extremely potent inhibitors (effective at a 1:1 ratio) of the spliced XBP-1. NIH 3T3 cells expressing XBP-1uc constructs were transfected with 200 ng of spliced XBP-1, yielding a relative luciferase activity of 44.5. 200 ng of XBP-N188 lowered the luciferase level to 1.8 and 200 ng of XBP-N136 lowered the luciferase activity to 2.2.

[5] = test system: XBP-1 mRNA; test: XBP-1 mRNA induction by cytokines in purified splenic B cells (Northern blot); type: cell-based, mouse
Method: as §1
Total RNA was isolated using TriZo1 (Gibco-BRL) or Qiashedder/Rneasy RNA purification columns (Quiagen). Northern Blots were performed as described (Rengarajan et al., 2000 Immunity. 12:293-300). Briefly, 7-10 μg RNA were electrophoresed on 1.2% agarose, 6% formaldehyde gels transferred onto Genescreen membrane (NEN) and covalently bound to the membrane using UV Stratalinker (Stratagene). The following probes were used after ^32P-radiolabeling with the ReadyPrime labeling system (Amersham-Pharmacia): XBP-1 (15-830 of the murine coding region), GRP94 and GRP78 (both a kind gift of R. J. Kaufman Univ. of Michigan (Lee et al., 2002)), Blimp (Nco1-Sca1 fragment), c-myc cDNA and Il-6 cDNA . […]
Since XBP-1 is required for terminal B cell differentiation, it was important to identify the stimuli that regulate XBP-1 gene expression. A plethora of cytokines (IL-2, IL-4, IL-5, IL-6, IL-10, IL-13) has been implicated in plasma cell differentiation both in vitro and in vivo (reviewed in Calame, K. L. (2001 Nat. Inimunol. 2: 1103-1108; Liu, Y. J., and Banchereau, J. (1997). Sem Immunol 9: 235; Zubler, 1997Sem. Hematol 34:13). It was possible that these cytokines effected terminal B cell differentiation by modulating XBP-1 gene expression. Thus, the ability of these cytokines to upregulate XBP-1 mRNA transcripts in B cells was tested. Purified splenic B cells were cultured for 24 h in the presence or absence of various cytokines and XBP-1 expression determined by Northern blot analysis. […] XBP-1 mRNA levels were determined by Northern blot analysis with γ-actin as control. […] XBP-1 mRNA levels were determined as above. […]

[6] = purified B cells treated with IL-4

**Q.** With lipopolysaccharide [LPS] as the molecule, how does the “spliced XBP-1 protein production” value ([1]; in the absence of other stimuli) read?
**A.** competent to produce substantial amounts of spliced XBP-1 protein

**Q.** And the “XBP-1 mRNA splicing (RT-PCR)” value [1]?
**A.** an additional band of 145 bp corresponding to the spliced form of XBP-1 mRNA

**Q.** For “IL-6: multi-functional cytokine; mature human IL-6 is a 185 amino acid polypeptide”, which Kd [2] is on record?
**A.** ~0.01 nM

**Q.** And the Kd [3]?
**A.** ~1 nM

B1: XBP-N136: XBP-1 deletion mutant consisting of the N terminal 136 amino acids of the spliced form (protein, UniProt O35426 1-136, looked up, fragment)
chain: MVVVAAAPSAATAAPKVLLLSGQPASGGRALPLMVPGPRAAGSEASGTPQARKRQRLTHLSPEEKALRRKLKNRVAAQTARDRKKARMSELEQQVVDLEEENHKLQLENQLLREKTHGLVVENQELRTRLGMDTLD
modifications: XBP-1s
notes: XBP-1 deletion mutant consisting of the N terminal 136 amino acids of the spliced form
**Q.** For B1, which relative luciferase activity [4] is on record?
**A.** 2.2

B2: XBP-N188: XBP-1 deletion mutant consisting of the N terminal 188 amino acids of the spliced form (protein)
chain: MVVVAAAPSAATAAPKVLLLSGQPASGGRALPLMVPGPRAAGSEASGTPQARKRQRLTHLSPEEKALRRKLKNRVAAQTARDRKKARMSELEQQVVDLEEENHKLQLENQLLREKTHGLVVENQELRTRLGMDTLDPDEVPEVEAKGSGVRLVAGSAESAAGAGPVVTSPEHLPMDSDTVASSDSESD
**Q.** For B2, which relative luciferase activity [4] is on record?
**A.** 1.8

B3: IL-4: multi-functional cytokine; recombinant IL-4 used at 20 ng/ml (protein, UniProt P05112 25-153, looked up)
Interleukin-4: HKCDITLQEIIKTLNSLTEQKTLCTELTVTDIFAASKNTTEKETFCRAATVLRQFYSHHEKDTRCLGATAQQFHRHKQLIRFLKRLDRNLWGLAGLNSCPVKEANQSTLENFLERLKTIMREKYSKCSS
**Q.** Which results are given for B3?
**A.** time at which XBP-1 transcript increase is apparent [5, 6]: ≤ 1 h; time of peak of XBP-1 transcripts [5, 6]: around 8 h; XBP-1 transcript induction ([5]; purified splenic B cells, cytokines 20 ng/ml, 24 h): induced a significant amount of XBP-1 ranscript; XBP-1 mRNA splicing (RT-PCR) [1]: unable to induce splicing
